Reference: patent US20140212432A1 (University of California, published 2014)

Experiments:
[1] = molecular target: T1, uPA-PAI-1 complex (human, UniProt P00749 21-177; P00749 179-431; P05121 24-402); experiment: binding of U33 Fab to uPA pre-incubated with PAI-1
[2] = molecular target: T2, active human urokinase-type plasminogen activator (uPA) (human, UniProt P00749 21-177; P00749 179-431); experiment: steady-state enzyme inhibition of soluble uPA
[3] = molecular target: T3, human pro-uPA (zymogen uPA) (human, UniProt P00749 21-431); experiment: quantitative ELISA, uPA-coated plates
T3 construct: mature
Description: (§1) Serial dilutions of pure U33 were added to uPA coated plates and incubated for 1 hour. The amount of Fab bound to uPA was determined by ELISA. U33 Fab was detected only in wells coated with human active uPA. Panel B depicts inhibition of human uPA by U33. The proteolytic activity of human or mouse uPA was read in absence and presence of 1 μM of U33. The enzyme activity is expressed as percentage of the uPA activity in absence of Fab (100%). […] Serial dilutions of U33-Fab were added to uPAR-uPA coated plates and incubated for 1 hour and the activity of uPA was read. Panel D depicts prevention of uPA binding to PAI-1 coated plates by U33. Serial dilutions of pure U33 (4 μM to 31.2 nM) were pre-incubated overnight with uPA and added to PAI-1 coated plates. The amount of uPA bound to PAI was determined by ELISA. […] Serial dilutions of U33 were added to a uPA-coated plate pre-incubated with and without 1 μM CMK. The amount of U33 Fab bound to uPA was determined by ELISA.
(§2) The affinity and specificity of the U33 Fab was determined using quantitative ELISA as well as inhibition assays with human uPA (active and zymogen) and mouse uPA.

[4] = molecular target: T4, mouse uPA (mouse, UniProt P06869 21-433, limits assumed); experiment: quantitative ELISA, uPA-coated plates
T4 construct: The construct is not described; It was active-site titrated in the IgG ELISA, so it was an active form; also called mouse enzyme
Description: as §1, §2

[5] = molecular target: T3, human pro-uPA (zymogen uPA); experiment: ELISA, plate coated with pro-uPA
Description: (§3) ELISA assays were performed to further assess the selectivity of U33 IgG for uPA compared to highly related serine proteases. All proteases were active site-titrated to ensure that identical concentrations of active protease were adsorbed to the ELISA plate. After blocking, increasing concentrations of U33 IgG were incubated for 1 hour at RT. Unbound U33 IgG was removed by washing and bound U33 IgG was detected with an anti-human Fc-HRP secondary. 50 μL at of 2.8 nM active protease in coating buffer were added to each well in a Nunc Maxisorb ELISA plate and incubated 0/N at 4° C. Unbound protease was removed by hand washing wells 3× with wash buffer. Wells were incubated in 200 μL of Block Solution per well for 2 h at RT. Block Solution was removed by hand washing wells 3× with wash buffer. 50 μL of U33 IgG in Block Solution was added for 1 h at RT. The highest U33 IgG concentration was 651 nM, and was decreased in two-fold increments to 5.1 nM. Unbound U33 IgG was removed by hand washing wells 6× with wash buffer. 50 μL of 1:2000 dilution of secondary antibody in Block Solution was added for 1 h at RT. Unbound secondary antibody was removed by hand washing wells 6× with wash buffer. 100 μL of 1-step Ultra TMB-ELISA was added and then quenched with 100 μL of 1 M HCl. Signal was quantified by measuring A₄₅₀ on plate reader. […]

[6] = molecular target: plasmin (UniProt P00747 97-810, limits assumed); experiment: ELISA, protease-coated plate, anti-human Fc-HRP detection
Description: (§4) ELISA assays were performed to further assess the selectivity of U33 IgG for uPA compared to highly related serine proteases. All proteases were active site-titrated to ensure that identical concentrations of active protease were adsorbed to the ELISA plate. After blocking, increasing concentrations of U33 IgG were incubated for 1 hour at RT. Unbound U33 IgG was removed by washing and bound U33 IgG was detected with an anti-human Fc-HRP secondary. 50 μL at of 2.8 nM active protease in coating buffer were added to each well in a Nunc Maxisorb ELISA plate and incubated 0/N at 4° C. Unbound protease was removed by hand washing wells 3× with wash buffer. Wells were incubated in 200 μL of Block Solution per well for 2 h at RT. Block Solution was removed by hand washing wells 3× with wash buffer. 50 μL of U33 IgG in Block Solution was added for 1 h at RT. The highest U33 IgG concentration was 651 nM, and was decreased in two-fold increments to 5.1 nM. Unbound U33 IgG was removed by hand washing wells 6× with wash buffer. 50 μL of 1:2000 dilution of secondary antibody in Block Solution was added for 1 h at RT. Unbound secondary antibody was removed by hand washing wells 6× with wash buffer. 100 μL of 1-step Ultra TMB-ELISA was added and then quenched with 100 μL of 1 M HCl. Signal was quantified by measuring A₄₅₀ on plate reader. Results for U33 binding to uPA, thrombin, HGFA, hepsin, chymotrypsin and trypsin are shown in FIG. 4, panel A. Results for U33 binding to uPA, MT-SP1 and plasmin are shown in FIG. 4, panel B. Results for U33 binding to uPA and tPA are shown in FIG. 4, panel C. […] Therefore U33 IgG can discriminate between proteases with identical catalytic mechanisms and similar protein folds.

[7] = molecular target: thrombin (UniProt P00734 328-622); experiment: as above
Description: as §4

[8] = molecular target: T5, MT-SP1 (UniProt Q9Y5Y6 615-855, limits assumed); experiment: as above
T5 sequence (looked up): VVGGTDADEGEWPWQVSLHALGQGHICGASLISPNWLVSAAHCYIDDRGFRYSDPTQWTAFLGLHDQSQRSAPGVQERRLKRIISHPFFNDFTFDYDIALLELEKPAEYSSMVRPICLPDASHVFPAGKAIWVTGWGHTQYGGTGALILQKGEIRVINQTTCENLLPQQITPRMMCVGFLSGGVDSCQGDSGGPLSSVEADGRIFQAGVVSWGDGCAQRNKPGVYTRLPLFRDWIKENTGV
Description: as §4

[9] = molecular target: T6, HGFA (UniProt Q04756 373-655, limits assumed); experiment: as above
T6 sequence (looked up): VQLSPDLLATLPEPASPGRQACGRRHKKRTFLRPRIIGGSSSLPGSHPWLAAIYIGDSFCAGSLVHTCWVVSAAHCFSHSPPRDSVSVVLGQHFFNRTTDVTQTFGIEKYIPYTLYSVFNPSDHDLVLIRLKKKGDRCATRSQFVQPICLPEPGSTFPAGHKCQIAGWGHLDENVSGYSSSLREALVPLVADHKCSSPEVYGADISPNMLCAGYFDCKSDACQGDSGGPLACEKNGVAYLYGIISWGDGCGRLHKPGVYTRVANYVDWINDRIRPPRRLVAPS
Description: as §4

[10] = molecular target: T4, mouse uPA; experiment: as above
Description: as §4

[11] = molecular target: tPA (UniProt P00750 36-562); experiment: as above
Description: as §4

[12] = molecular target: hepsin (UniProt P05981 45-417, limits assumed); experiment: as above
Description: as §4

[13] = molecular target: T2, active human urokinase-type plasminogen …; experiment: enzyme inhibition of uPA
[14] = molecular target: T1, uPA-PAI-1 complex; experiment: ELISA, uPA-coated plate pre-treated with PAI-1 (133 nM to 8.3 nM)
Description: as §3

T4 sequence (P06869 21-433 limits assumed): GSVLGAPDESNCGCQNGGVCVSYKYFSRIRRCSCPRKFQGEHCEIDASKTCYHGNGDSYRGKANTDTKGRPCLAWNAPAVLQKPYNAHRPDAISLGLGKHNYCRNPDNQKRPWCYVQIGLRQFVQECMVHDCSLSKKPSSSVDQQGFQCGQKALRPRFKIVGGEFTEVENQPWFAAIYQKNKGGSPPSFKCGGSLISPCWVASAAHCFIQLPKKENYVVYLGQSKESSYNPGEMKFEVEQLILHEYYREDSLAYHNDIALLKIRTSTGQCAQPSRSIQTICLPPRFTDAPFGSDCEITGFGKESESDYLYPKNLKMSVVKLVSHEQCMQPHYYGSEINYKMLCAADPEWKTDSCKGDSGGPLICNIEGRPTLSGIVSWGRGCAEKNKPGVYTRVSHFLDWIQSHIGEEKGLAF
plasmin, sequence (P00747 97-810 limits assumed): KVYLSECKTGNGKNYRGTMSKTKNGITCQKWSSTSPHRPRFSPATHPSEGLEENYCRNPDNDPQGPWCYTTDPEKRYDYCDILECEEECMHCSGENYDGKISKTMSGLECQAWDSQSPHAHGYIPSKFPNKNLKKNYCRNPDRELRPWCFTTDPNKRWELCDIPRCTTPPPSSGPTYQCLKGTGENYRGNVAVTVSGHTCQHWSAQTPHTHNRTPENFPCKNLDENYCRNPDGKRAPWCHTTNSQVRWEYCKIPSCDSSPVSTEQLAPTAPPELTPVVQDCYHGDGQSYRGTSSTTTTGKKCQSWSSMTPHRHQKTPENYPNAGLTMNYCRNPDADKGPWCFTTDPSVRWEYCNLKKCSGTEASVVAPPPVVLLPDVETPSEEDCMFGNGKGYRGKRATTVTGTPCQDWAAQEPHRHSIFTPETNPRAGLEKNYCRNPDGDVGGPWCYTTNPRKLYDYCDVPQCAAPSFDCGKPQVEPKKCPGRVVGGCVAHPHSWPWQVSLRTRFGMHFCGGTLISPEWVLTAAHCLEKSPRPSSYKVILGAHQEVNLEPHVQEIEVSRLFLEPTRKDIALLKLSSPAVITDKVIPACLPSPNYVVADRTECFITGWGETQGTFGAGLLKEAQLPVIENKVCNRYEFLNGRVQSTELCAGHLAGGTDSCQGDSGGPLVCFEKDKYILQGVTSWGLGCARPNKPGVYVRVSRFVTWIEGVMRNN
hepsin, sequence (P05981 45-417 limits assumed): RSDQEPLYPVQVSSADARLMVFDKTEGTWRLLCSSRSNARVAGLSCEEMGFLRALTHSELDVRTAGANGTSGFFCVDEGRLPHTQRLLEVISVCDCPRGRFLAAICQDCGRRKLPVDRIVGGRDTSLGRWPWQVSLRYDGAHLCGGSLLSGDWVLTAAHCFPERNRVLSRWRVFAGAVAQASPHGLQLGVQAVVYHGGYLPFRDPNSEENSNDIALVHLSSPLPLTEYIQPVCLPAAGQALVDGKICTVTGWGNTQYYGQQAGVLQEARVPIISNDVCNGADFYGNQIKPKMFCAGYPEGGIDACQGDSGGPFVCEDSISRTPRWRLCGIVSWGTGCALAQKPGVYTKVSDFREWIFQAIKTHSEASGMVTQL
tPA, sequence (P00750 36-562 limits assumed): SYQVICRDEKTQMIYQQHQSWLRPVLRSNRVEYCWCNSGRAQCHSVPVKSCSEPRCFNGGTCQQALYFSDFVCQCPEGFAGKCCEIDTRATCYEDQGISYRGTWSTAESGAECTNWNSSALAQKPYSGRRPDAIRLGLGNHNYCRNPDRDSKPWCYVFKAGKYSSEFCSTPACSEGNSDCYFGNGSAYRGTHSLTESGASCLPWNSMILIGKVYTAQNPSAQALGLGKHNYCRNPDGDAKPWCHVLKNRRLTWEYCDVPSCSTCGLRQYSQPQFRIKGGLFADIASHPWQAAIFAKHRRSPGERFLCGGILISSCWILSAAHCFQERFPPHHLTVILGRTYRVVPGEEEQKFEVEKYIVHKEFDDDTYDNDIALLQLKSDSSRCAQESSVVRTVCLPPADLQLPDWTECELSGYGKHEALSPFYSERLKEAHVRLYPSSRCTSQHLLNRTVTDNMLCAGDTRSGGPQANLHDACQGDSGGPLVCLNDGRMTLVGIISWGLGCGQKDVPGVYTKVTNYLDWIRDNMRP

Row | Binder | binding result [1] | Ki [2] | binding result [3] | binding result [4] | binding result [5] | binding result [6] | binding result [7] | binding result [8] | binding result [9] | binding result [10] | binding result [11] | binding result [12] | Ki [13] | binding result [14]
1 | U33 Fab (Fab, V domains shown, Human Fab from a naive B cell phage display library; also called clone U33; Fab U33) VH: EVQLVQSGGGLVKPGRSLRLSCTASGFTFGDYAMSWVRQAPGKGLEWVGFIRSKAYGGTTEYAAVKGRFTISRDDSKSIAYLQMNSLKTEDTAVYYCIRGANWNWGQGTLVTVSS VL: EIVLTQSPLSLPVTPGEPASISCRSSQTLMNRNGNNFLDWYLQKPGQSPQLLIYLGSNRAPGVPDRFSGSGSGTDFTLKISRVEAEDVGVYYCMQRIEFPYTFGQGTKLEIKR | no binding | 0.02 µM | no binding | no binding |  |  |  |  |  |  |  |  |  | 
2 | U33 IgG (antibody, V domains shown, U33 Fab converted to full length IgG; It was detected with an anti-human Fc secondary; The internalisation study used the 111In-DOTA labelled form; also called full length IgG; 111In-U33 IgG) VH: EVQLVQSGGGLVKPGRSLRLSCTASGFTFGDYAMSWVRQAPGKGLEWVGFIRSKAYGGTTEYAAVKGRFTISRDDSKSIAYLQMNSLKTEDTAVYYCIRGANWNWGQGTLVTVSS VL: EIVLTQSPLSLPVTPGEPASISCRSSQTLMNRNGNNFLDWYLQKPGQSPQLLIYLGSNRAPGVPDRFSGSGSGTDFTLKISRVEAEDVGVYYCMQRIEFPYTFGQGTKLEIKR |  |  |  |  | no binding (tested: highest U33 IgG concentration 651 nM) | no binding (tested: highest U33 IgG concentration 651 nM) | no binding (tested: highest U33 IgG concentration 651 nM) | no binding (tested: highest U33 IgG concentration 651 nM) | no binding (tested: highest U33 IgG concentration 651 nM) | no binding (tested: highest U33 IgG concentration 651 nM) | no binding (tested: highest U33 IgG concentration 651 nM) | no binding (tested: highest U33 IgG concentration 651 nM) | 0.01 µM | no binding (tested: highest U33 IgG concentration 651 nM)
